Experimental data: PMC12499436, “Human Schlafen 14 Cleavage of Short Double‐Stranded RNAs Underpins its Antiviral Activity” (Advanced Science, 2025)

Tests used:
[1] = target: the molecule itself; assay: SEC; recombinant strep-strep-SUMO tagged SLFN14 in solution with 150 mM NaCl; gel-filtration standards
[2] = target: the molecule itself; assay: cryo-EM structure; apo SLFN14^mut, single-particle analysis, 2.84 Å
[3] = target: T1, SLFN14 (WT) (Homo sapiens, UniProt P0C7P3 1-912); assay: BLI; steady state; kdis 1.3e-3 /s; BLI: PBS, 0.02% P20, 0.1% BSA, 25 C; EMSA: 25 mM HEPES pH 7.5, 50 mM NaCl, 8% glycerol, 2 mM MgCl2, 1 mM DTT, 4 C, 50 nM ssDNA; cryo-EM: RNA in 40 mM Tris-HCl pH 8.0, 20 mM KCl, 4 mM MgCl2, 2 mM DTT, protein:RNA 1:1.2, 4 C overnight; details: protein: recombinant; tags: Strep-Strep-SUMO (N-term); chain copies: 2
T1 sequence: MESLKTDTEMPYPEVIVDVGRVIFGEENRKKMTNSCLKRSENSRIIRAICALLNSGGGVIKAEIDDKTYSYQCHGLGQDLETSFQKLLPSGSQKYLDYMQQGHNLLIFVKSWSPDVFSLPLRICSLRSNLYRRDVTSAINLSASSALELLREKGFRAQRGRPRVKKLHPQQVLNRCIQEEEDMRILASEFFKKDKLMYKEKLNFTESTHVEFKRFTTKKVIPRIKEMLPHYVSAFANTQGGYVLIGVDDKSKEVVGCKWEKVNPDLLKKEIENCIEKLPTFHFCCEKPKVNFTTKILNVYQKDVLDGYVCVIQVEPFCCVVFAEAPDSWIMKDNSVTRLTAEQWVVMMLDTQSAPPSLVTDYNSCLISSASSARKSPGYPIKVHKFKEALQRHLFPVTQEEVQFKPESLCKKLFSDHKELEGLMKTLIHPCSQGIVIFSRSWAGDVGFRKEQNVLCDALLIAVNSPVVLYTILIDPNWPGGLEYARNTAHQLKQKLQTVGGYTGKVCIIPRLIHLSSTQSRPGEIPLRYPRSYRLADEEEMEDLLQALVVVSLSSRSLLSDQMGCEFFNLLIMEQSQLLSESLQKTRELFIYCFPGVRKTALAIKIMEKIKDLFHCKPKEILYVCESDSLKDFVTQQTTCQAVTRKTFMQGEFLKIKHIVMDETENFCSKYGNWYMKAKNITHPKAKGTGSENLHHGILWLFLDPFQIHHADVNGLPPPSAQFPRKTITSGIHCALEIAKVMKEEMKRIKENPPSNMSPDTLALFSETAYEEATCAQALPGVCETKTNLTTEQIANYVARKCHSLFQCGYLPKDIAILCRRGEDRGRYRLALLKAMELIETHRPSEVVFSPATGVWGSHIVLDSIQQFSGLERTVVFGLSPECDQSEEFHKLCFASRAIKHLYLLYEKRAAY

[4] = target: T2, SLFN11 (WT) (Homo sapiens, UniProt Q7Z7L1 1-901); assay: BLI; steady state; kdis 4.8e-4 /s; BLI: PBS, 0.02% P20, 0.1% BSA, 25 C; EMSA: 25 mM HEPES pH 7.5, 50 mM NaCl, 8% glycerol, 2 mM MgCl2, 1 mM DTT, 4 C, 50 nM ssDNA; cryo-EM: RNA in 40 mM Tris-HCl pH 8.0, 20 mM KCl, 4 mM MgCl2, 2 mM DTT, protein:RNA 1:1.2, 4 C overnight; details: protein: recombinant; tags: Strep-II-SUMO (N-term); chain copies: 2
T2 sequence: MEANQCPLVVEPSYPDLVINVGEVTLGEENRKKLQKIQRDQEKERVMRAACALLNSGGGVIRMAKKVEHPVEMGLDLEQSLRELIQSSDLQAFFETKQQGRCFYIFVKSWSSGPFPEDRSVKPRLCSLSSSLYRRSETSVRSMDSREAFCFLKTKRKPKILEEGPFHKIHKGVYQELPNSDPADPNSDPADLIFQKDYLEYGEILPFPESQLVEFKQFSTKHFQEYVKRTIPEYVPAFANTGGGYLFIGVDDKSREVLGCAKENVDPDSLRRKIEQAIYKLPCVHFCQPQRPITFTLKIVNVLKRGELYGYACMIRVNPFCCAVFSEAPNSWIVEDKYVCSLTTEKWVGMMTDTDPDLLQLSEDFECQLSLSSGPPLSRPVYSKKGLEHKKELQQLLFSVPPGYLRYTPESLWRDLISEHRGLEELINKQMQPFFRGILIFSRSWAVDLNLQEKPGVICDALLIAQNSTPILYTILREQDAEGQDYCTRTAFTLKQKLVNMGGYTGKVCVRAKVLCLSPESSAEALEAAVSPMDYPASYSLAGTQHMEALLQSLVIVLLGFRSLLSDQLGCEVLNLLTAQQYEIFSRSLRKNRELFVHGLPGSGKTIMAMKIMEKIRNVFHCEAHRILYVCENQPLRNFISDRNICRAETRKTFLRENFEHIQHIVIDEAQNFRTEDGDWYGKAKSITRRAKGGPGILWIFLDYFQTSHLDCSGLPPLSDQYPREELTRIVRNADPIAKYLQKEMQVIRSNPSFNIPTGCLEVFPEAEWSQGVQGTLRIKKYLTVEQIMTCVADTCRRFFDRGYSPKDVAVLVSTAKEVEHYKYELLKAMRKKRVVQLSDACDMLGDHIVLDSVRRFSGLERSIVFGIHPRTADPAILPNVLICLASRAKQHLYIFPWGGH

[5] = target: T3, SLFN14mut (Homo sapiens, UniProt P0C7P3 1-912, E211A;C365S;C775S;C808S); assay: cryo-EM structure; 2.88 A; Zn2+ (2 per dimer); no active-site ion density; BLI: PBS, 0.02% P20, 0.1% BSA, 25 C; EMSA: 25 mM HEPES pH 7.5, 50 mM NaCl, 8% glycerol, 2 mM MgCl2, 1 mM DTT, 4 C, 50 nM ssDNA; cryo-EM: RNA in 40 mM Tris-HCl pH 8.0, 20 mM KCl, 4 mM MgCl2, 2 mM DTT, protein:RNA 1:1.2, 4 C overnight; details: protein: recombinant; tags: 6xHis-SUMO (N-term); chain copies: 2; hairpin, 12-bp stem, 7-nt loop
T3 sequence: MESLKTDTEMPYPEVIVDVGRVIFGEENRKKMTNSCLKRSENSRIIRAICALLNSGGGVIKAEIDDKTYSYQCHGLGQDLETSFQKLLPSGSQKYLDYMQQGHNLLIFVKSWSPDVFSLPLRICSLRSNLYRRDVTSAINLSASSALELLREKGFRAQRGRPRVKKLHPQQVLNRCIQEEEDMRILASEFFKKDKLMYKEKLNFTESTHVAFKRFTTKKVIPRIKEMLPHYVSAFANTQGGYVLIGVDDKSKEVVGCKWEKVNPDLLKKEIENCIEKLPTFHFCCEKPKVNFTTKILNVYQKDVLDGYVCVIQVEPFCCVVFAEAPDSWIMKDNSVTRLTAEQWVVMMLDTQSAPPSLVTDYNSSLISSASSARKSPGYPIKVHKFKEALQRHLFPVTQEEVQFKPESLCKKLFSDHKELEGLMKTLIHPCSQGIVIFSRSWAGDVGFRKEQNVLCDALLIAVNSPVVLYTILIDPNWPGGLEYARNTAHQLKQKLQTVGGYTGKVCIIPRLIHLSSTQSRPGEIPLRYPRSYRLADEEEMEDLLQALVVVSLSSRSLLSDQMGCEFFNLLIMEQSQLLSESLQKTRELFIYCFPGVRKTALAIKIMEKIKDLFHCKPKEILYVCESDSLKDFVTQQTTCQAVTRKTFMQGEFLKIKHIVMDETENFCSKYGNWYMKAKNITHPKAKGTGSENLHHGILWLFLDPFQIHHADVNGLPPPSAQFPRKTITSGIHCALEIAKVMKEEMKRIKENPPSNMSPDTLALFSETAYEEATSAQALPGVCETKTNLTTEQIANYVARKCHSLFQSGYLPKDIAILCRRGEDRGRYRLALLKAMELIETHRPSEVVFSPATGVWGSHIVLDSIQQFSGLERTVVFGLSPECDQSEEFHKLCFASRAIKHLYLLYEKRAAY

B1: human SLFN14, wild type (strep-strep-SUMO tagged) (enzyme, UniProt P0C7P3 1-912, looked up)
chain: MESLKTDTEMPYPEVIVDVGRVIFGEENRKKMTNSCLKRSENSRIIRAICALLNSGGGVIKAEIDDKTYSYQCHGLGQDLETSFQKLLPSGSQKYLDYMQQGHNLLIFVKSWSPDVFSLPLRICSLRSNLYRRDVTSAINLSASSALELLREKGFRAQRGRPRVKKLHPQQVLNRCIQEEEDMRILASEFFKKDKLMYKEKLNFTESTHVEFKRFTTKKVIPRIKEMLPHYVSAFANTQGGYVLIGVDDKSKEVVGCKWEKVNPDLLKKEIENCIEKLPTFHFCCEKPKVNFTTKILNVYQKDVLDGYVCVIQVEPFCCVVFAEAPDSWIMKDNSVTRLTAEQWVVMMLDTQSAPPSLVTDYNSCLISSASSARKSPGYPIKVHKFKEALQRHLFPVTQEEVQFKPESLCKKLFSDHKELEGLMKTLIHPCSQGIVIFSRSWAGDVGFRKEQNVLCDALLIAVNSPVVLYTILIDPNWPGGLEYARNTAHQLKQKLQTVGGYTGKVCIIPRLIHLSSTQSRPGEIPLRYPRSYRLADEEEMEDLLQALVVVSLSSRSLLSDQMGCEFFNLLIMEQSQLLSESLQKTRELFIYCFPGVRKTALAIKIMEKIKDLFHCKPKEILYVCESDSLKDFVTQQTTCQAVTRKTFMQGEFLKIKHIVMDETENFCSKYGNWYMKAKNITHPKAKGTGSENLHHGILWLFLDPFQIHHADVNGLPPPSAQFPRKTITSGIHCALEIAKVMKEEMKRIKENPPSNMSPDTLALFSETAYEEATCAQALPGVCETKTNLTTEQIANYVARKCHSLFQCGYLPKDIAILCRRGEDRGRYRLALLKAMELIETHRPSEVVFSPATGVWGSHIVLDSIQQFSGLERTVVFGLSPECDQSEEFHKLCFASRAIKHLYLLYEKRAAY
notes: human Schlafen 14 (SLFN14), Gene ID 342618, wild type, codon-optimised gene; also called WT-SLFN14; Schlafen 14; source: HEK293F, transiently transfected, purified (Strep-Tactin, SEC); not shown: strep-strep, N-terminal, kept; SUMO, N-terminal, kept
stoichiometry N [1]: 2

B2: SLFN14 E211A-C365S-C775S-C808S (SLFN14^mut) (enzyme, human, UniProt P0C7P3 1-912, looked up)
chain: MESLKTDTEMPYPEVIVDVGRVIFGEENRKKMTNSCLKRSENSRIIRAICALLNSGGGVIKAEIDDKTYSYQCHGLGQDLETSFQKLLPSGSQKYLDYMQQGHNLLIFVKSWSPDVFSLPLRICSLRSNLYRRDVTSAINLSASSALELLREKGFRAQRGRPRVKKLHPQQVLNRCIQEEEDMRILASEFFKKDKLMYKEKLNFTESTHVAFKRFTTKKVIPRIKEMLPHYVSAFANTQGGYVLIGVDDKSKEVVGCKWEKVNPDLLKKEIENCIEKLPTFHFCCEKPKVNFTTKILNVYQKDVLDGYVCVIQVEPFCCVVFAEAPDSWIMKDNSVTRLTAEQWVVMMLDTQSAPPSLVTDYNSSLISSASSARKSPGYPIKVHKFKEALQRHLFPVTQEEVQFKPESLCKKLFSDHKELEGLMKTLIHPCSQGIVIFSRSWAGDVGFRKEQNVLCDALLIAVNSPVVLYTILIDPNWPGGLEYARNTAHQLKQKLQTVGGYTGKVCIIPRLIHLSSTQSRPGEIPLRYPRSYRLADEEEMEDLLQALVVVSLSSRSLLSDQMGCEFFNLLIMEQSQLLSESLQKTRELFIYCFPGVRKTALAIKIMEKIKDLFHCKPKEILYVCESDSLKDFVTQQTTCQAVTRKTFMQGEFLKIKHIVMDETENFCSKYGNWYMKAKNITHPKAKGTGSENLHHGILWLFLDPFQIHHADVNGLPPPSAQFPRKTITSGIHCALEIAKVMKEEMKRIKENPPSNMSPDTLALFSETAYEEATSAQALPGVCETKTNLTTEQIANYVARKCHSLFQSGYLPKDIAILCRRGEDRGRYRLALLKAMELIETHRPSEVVFSPATGVWGSHIVLDSIQQFSGLERTVVFGLSPECDQSEEFHKLCFASRAIKHLYLLYEKRAAY
notes: human Schlafen 14 (SLFN14), Gene ID 342618, full length, with four mutations introduced for cryo-EM; No tag cleavage is described in the purification; also called apo SLFN14; SLFN14 apoenzyme; source: Sf21 (baculovirus, pFastBac1), purified (Ni-NTA, heparin, SEC)
binding result [2]: binds

B3: 50-nt ssDNA (BLI) (ssDNA)
DNA: AATTGGTCGTAGCAAGCTCTAGCACCGCTTAAACGCACGTACGCGCTGTC
Kd [3]: 9 nM | Kd [4]: 37 nM

B4: short hairpin RNA (hRNA) (structured_RNA)
RNA: GCAUCAGCUACCUAAAGUUCAGGUAGCUGAUG
binding result [5]: binds
